Measured values taken from publication PMC10691696, “ZmEREB92 plays a negative role in seed germination by regulating ethylene signaling and starch mobilization in maize”.

B1: pAMYa2-A (dsDNA)
DNA 1: TCAAGAATTTAAGGCGGCGAAAGCCGAC
DNA 2: GTCGGCTTTCGCCGCCTTAAATTCTTGA
B2: pAMYa2-C (dsDNA)
DNA 1: TCGTCGTCTCGCCGCCGCCGCCGCCGCCGCAACGGGTCT
DNA 2: AGACCCGTTGCGGCGGCGGCGGCGGCGGCGAGACGACGA

Biological target: ZmEREB92 (Zea mays, UniProt B6SIZ8 1-233)
Test: EMSA; 200x unlabeled probe used as competitor; EMSA: 0.2 pmol biotin probe with ZmEREB92-His, 30 min at 28 °C, 6.5% native PAGE, chemiluminescence kit (Beyotime); buffer, salt and pH not given
Details: protein: recombinant; tags: His-tag (C-terminal as stated; pET32a vector); label: biotin; blunt

Chain of ZmEREB92 (B6SIZ8 entry or part of it): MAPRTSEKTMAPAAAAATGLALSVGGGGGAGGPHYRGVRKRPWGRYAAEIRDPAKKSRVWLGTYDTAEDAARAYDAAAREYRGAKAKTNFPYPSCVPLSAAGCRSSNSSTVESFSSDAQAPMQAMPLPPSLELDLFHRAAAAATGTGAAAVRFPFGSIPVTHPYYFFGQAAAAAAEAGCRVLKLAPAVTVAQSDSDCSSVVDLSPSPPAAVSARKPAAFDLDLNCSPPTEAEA

Row | Binder | binding result
1 | B1 | binds
2 | B2 | binds
